We go through two molecules from patent US20200291104A1 (UCB, published 2020).

The target of experiment [1] is T1, human TNF-alpha (human, UniProt P01375 77-233). The experiment is described as follows: SPR (Biacore T200); Fab captured by anti-human F(ab')2, human TNF injected at 5 nM.
In experiment [2] the target is cynomolgus TNF (cynomolgus) (UniProt P79337). The experiment is described as follows: SPR (Biacore T200); Fab captured by anti-human F(ab')2, cynomolgus TNF injected at 3.125 nM.
Experiment [3] addresses T1, human TNF-alpha. The experiment is described as follows: SPR (Biacore T200); IgG captured by anti-mouse IgG-Fc, human TNF injected at 20 nM. For orientation: SPR reads the build-up and loss of mass on a sensor chip optically.
Experiment [4] has as its target T1, human TNF-alpha. The experiment is described as follows: cell-based or functional assay.

Several values for one entry are separate records, joined by “and”; a condition that tells them apart may be missing. Identical values can stand only once.

T1 sequence (P01375 77-233 limits assumed): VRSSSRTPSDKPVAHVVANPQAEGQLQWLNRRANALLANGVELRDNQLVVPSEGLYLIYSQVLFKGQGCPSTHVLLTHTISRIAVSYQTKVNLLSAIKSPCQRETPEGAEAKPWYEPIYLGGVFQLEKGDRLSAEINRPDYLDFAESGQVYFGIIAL

B1: 2109 rat/human chimeric Fab (Fab, V domains shown)
VH: EVQLHQSGAALVKPGASVKLSCKTSGYTFTDNYIHWVKQSPGKSLEWIGYINPSSAYAHYNEKFKTKATLTVDKSTNTAYMELSRLTSEDSATYFCTRRYYSAMPFAYWGQGTLVTVSS
VL: DIVMTQSPASLSASLGETVTIECRASEDIYNGLAWYQQKPGKSPHLLIYNSNTLHTGVPSRFSGTGSGTQYSLKINSLQSEDVATYFCQQNYDFPLTFGSGTKLELKR
For the molecule B1, in the experiment with human TNF-alpha [1], the Kd (in general, a measure of binding affinity in units of concentration) was 0.0349 nM and 0.035 nM; the koff (in general, the first-order rate constant of dissociation) worked out at 0.000143 s⁻¹; the kon (commonly a measure of how fast the partners come together) was found to be 4.09e+06 M⁻¹ s⁻¹. Further, in experiment [2], the Kd was 0.0274 nM and 0.027 nM; the koff amounted to 0.000102 s⁻¹; the kon was 3.71e+06 M⁻¹ s⁻¹.

B2: CA2109 IgG (recombinant rat/mouse chimeric IgG1) (antibody, V domains shown)
VH: B1 VH
VL: DIVMTQSPASLSASLGETVTIECRASEDIYNGLAWYQQKPGKSPHLLIYNSNTLHTGVPSRFSGTGSGTQYSLKINSLQSEDVATYFCQQNYDFPLTFGSGTKLELK
On to B2, for which, in the experiment with human TNF-alpha [3], binding was characterised by a dissociation constant (Kd) of 0.025 nM, the koff amounted to 0.000119 s⁻¹ and the kon turned out to be 4.7e+06 M⁻¹ s⁻¹. Also, the “EC50 (ng/ml), neutralisation in HEK-293-CD40-BLUE reporter assay” value in the experiment with human TNF-alpha [4] was 0.31 ng/mL.
